Values of other authors in PMC5877629.

Target: infliximab
Assay: sedimentation equilibrium analytical ultracentrifugation

In the case of infliximab, the Kd is given as 21 µM.
